Experimental data as given in article PMC10805704, “VCIP135 associates with both the N- and C-terminal regions of p97 ATPase” (The Journal of Biological Chemistry, 2023).

Biological target: T1, endogenous p97 purified from rat liver cytosol, biotinylated (rat (endogenous in rat liver), UniProt P46462 1-806, biotinylated using EZ-Link Sulfo-NHS-LC-biotin (sites not given))
T1 construct: p97 ATPase (VCP), endogenous protein purified from rat liver cytosol; Held on streptavidin beads through the biotin; also called p97ATPase; VCP; source: purified from rat liver cytosol
T1 sequence (P46462 whole entry): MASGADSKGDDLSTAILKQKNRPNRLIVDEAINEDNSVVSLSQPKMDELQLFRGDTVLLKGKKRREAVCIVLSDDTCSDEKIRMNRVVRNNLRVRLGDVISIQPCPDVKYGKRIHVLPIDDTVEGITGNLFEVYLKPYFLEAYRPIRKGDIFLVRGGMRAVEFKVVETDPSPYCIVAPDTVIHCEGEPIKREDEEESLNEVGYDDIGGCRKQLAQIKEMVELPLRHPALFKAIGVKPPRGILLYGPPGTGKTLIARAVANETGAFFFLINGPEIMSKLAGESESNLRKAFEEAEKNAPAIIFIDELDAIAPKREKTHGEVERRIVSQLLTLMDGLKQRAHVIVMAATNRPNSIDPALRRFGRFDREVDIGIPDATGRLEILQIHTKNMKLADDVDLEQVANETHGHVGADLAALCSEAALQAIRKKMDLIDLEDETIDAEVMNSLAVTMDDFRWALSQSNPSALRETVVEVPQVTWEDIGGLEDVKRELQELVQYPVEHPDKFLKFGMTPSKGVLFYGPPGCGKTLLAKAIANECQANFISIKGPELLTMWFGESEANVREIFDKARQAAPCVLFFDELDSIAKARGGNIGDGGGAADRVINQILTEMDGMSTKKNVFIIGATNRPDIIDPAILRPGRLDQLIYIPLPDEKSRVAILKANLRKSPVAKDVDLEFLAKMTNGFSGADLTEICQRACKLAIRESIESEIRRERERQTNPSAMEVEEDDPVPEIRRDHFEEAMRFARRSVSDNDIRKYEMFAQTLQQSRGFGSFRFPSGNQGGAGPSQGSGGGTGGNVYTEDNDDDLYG
Test: pull-down; endogenous rat liver p97, biotinylated, immobilised on streptavidin beads; His-tagged VCIP135 or its fragments or mutants in solution; 1 mM AMP-PNP (Figs 1A, 5C, 5D: the indicated nucleotide, 1 mM); 20 mM HEPES, 100 mM KCl, 1 mM MgCl2, 1 mM DTT, 0.5% CHAPS, 10% glycerol, pH 7.4; Western blot with antibodies to p97 and His-tag
Conditions: both partners purified

Row | binding result | Binder
1 | binds | His-tagged VCIP135(744-1221) (domain or fragment, rat, UniProt Q8CF97 744-1221, looked up, also called C-terminal half of VCIP135) TVSPSTIRDGPSSAPATPTKAPYSPTTSKEKKIRITTNDGRQSMVTLKSSTTFFELQESIAREFNIPPYLQCIRYGFPPKELMPPQAGMEKEPVPLQHGDRITIEILKGKAEGGPSTAAHSAHTVRQEEIAVTGKLSSKELQEQADKEMYSLCLLATLMGEDVWSYAKGLPHMFQQGGVFYNIMKKTMGMADGKHCTFPHLPGKTFVYNASEDRLELCVDAAGHFPIGPDVEDLVKEAVSQVRAEATTRSRESSPSHGLLKLGSGGVVKKKSEQLHNVTAFQGKGHSLGTASSNPHMDPRARETLAVRKHNTGTDFSNSSIKTEPPVFTAASSNSELIRIAPGVVTMRDGRQIDPDVVEAQRKKLQEMVSSIQASMDKHLRDQSTEQTPSDLSQRKVEAVSSSVRPGNLQTGLPESFSLTGGTENLNTETTDSRVADVLGAAFATRSKAQKENSMEEPEEMDSQDAETTNTTEPMDHS
2 | binds | His-tagged VCIP135(1-743) (domain or fragment, rat, UniProt Q8CF97 1-743, looked up, also called N-terminal half of VCIP135) MSQPPPPPPLPPPPPPPEAPQTSSSLAAAATPGGLSKRRDRRILSGSCPDPKCQARLFFPASGSVSIECTECGQRHEQQQLLGVEEVTDPDVVLHNLLRNALLGVTGAPKKNTELVKVMGLSNYHCKLLSPILARYGMDKQTGRAKLLRDMNQGELFDCALLGDRAFLIEPEHVNTVGYGKDRSGSLLYLHDTLEDIKRANKSQECLIPVHVDGDGHCLVHAVSRALVGRELFWHALRENLKQHFQQHLARYQALFHDFIDAAEWEDIINECDPLFVPPEGVPLGLRNIHIFGLANVLHRPIILLDSLSGMRSSGDYSATFLPGLIPAEKCTGRDGHLNKPICIAWSSSGRNHYIPLVGIKGAALPKLPMNLLPKAWGVPQDLIKKYIKLEEDGGCVIGGDRSLQDKYLLRLVAAMEEVFMDKHGIHPSLVADVHQYFYRRTGVIGVQPEEVTAAAKKAVMDNRLHKCLLCGALSELHVPPEWLAPGGKLYNLAKSTHGQLRPDKNYSFPLNNLVCSYDPVKDVLLPDYGLSNLTACNWCHGTSVRRVRGDGSIVYLDGDRTNSRSTGGKCGCGFKHFWEGKEYDNLPEAFPITLEWGGRVVRETVYWFQYESDPSLNSNVYDVAMKLVTKHFPGEFGSEILVQKVVHTILHQTAKKNPDDYTPVNIDGAHAQRIGDVQGQELESQLPTKIILTGQKTKTLHKEELNMSKTERTIQQNITEQASVMQKRKTEKLKQEQKGQPR
3 | binds | His-tagged VCIP135(903-1053) (domain or fragment, rat, UniProt Q8CF97 903-1053, looked up) GEDVWSYAKGLPHMFQQGGVFYNIMKKTMGMADGKHCTFPHLPGKTFVYNASEDRLELCVDAAGHFPIGPDVEDLVKEAVSQVRAEATTRSRESSPSHGLLKLGSGGVVKKKSEQLHNVTAFQGKGHSLGTASSNPHMDPRARETLAVRKH
4 | binds | His-tagged VCIP135(1-390) (domain or fragment, rat, UniProt Q8CF97 1-390, looked up, VCIP135, rat, residues 1-390) MSQPPPPPPLPPPPPPPEAPQTSSSLAAAATPGGLSKRRDRRILSGSCPDPKCQARLFFPASGSVSIECTECGQRHEQQQLLGVEEVTDPDVVLHNLLRNALLGVTGAPKKNTELVKVMGLSNYHCKLLSPILARYGMDKQTGRAKLLRDMNQGELFDCALLGDRAFLIEPEHVNTVGYGKDRSGSLLYLHDTLEDIKRANKSQECLIPVHVDGDGHCLVHAVSRALVGRELFWHALRENLKQHFQQHLARYQALFHDFIDAAEWEDIINECDPLFVPPEGVPLGLRNIHIFGLANVLHRPIILLDSLSGMRSSGDYSATFLPGLIPAEKCTGRDGHLNKPICIAWSSSGRNHYIPLVGIKGAALPKLPMNLLPKAWGVPQDLIKKYIKL
